Data reported in publication PMC8221569 (Molecular Cell, 2021).
Changes are numbered by the printed parent chain. Names may count otherwise.

B1: DNAJC9 αB C243S (204–249), GST tag removed (domain or fragment)
chain: RKELGLDEGVDSLKAAIQSRQKDRQKEMDNFLAQMEAKYSKSSKGG
notes: crystallized construct; also called isolated DNAJC9 αB helix (C243S); source: E. coli BL21 (DE3)-RIL, purified (Glutathione Sepharose 4B, 3C protease, Superdex 200)
B2: GST-DNAJC9 HBD (histone binding domain, 171–249) (domain or fragment)
chain: EVPSYNAFVKESKQKMNARKRRAQEEAKEAEMSRKELGLDEGVDSLKAAIQSRQKDRQKEMDNFLAQMEAKYCKSSKGG
notes: PDB 7CJ0 holds the same limits with C243S; also called GST-tagged DNAJC9 HBD; DNAJC9 HBD WT; source: E. coli BL21 (DE3)-RIL, purified (Glutathione Sepharose 4B, Superdex 200)
B3: GST-DNAJC9 HBD Q224A R227A (domain or fragment)
chain: B2 chain with Q54A, R57A
notes: source: E. coli BL21 (DE3)-RIL, purified (Glutathione Sepharose 4B, Superdex 200)
B4: GST-DNAJC9 HBD F234A L235A (domain or fragment)
chain: B2 chain with F64A, L65A
notes: as for B3
B5: GST-DNAJC9 HBD M238A Y242A (domain or fragment)
chain: B2 chain with M68A, Y72A
notes: as for B3
B6: DNAJC9 HBD (171–249), GST tag removed (domain or fragment)
chain: B2 chain
notes: used in ITC; also called DNAJC9 HBD WT; source: E. coli BL21 (DE3)-RIL, purified (Glutathione Sepharose 4B, 3C protease, Superdex 200)
B7: GST-DNAJC9 HBD 4A1 (E195A E196A E199A A200E) (domain or fragment)
chain: B2 chain with E25A, E26A, E29A, A30E
notes: as for B3
B8: DNAJC9 HBD C243S (171–249), GST tag removed (domain or fragment)
chain: B2 chain with C73S
notes: crystallized construct; source: E. coli BL21 (DE3)-RIL, purified (Glutathione Sepharose 4B, 3C protease, Superdex 200)

Key:
Details in all cases: both partners purified
histone H4 (recombinant) [1] = target: T1, histone H4 (recombinant) (human, UniProt P62805 2-103); experiment: crystal structure; DNAJC9 αB C243S mixed 1:1 with the MCM2 HBD (61–130)–H3.3 (57–135)–H4 complex, gel filtration in 500 mM NaCl; PDB 7CIZ, 1.80 Å
[2] = target: T2, MCM2 HBD (61–130)–H3.3–H4 complex ( | human, UniProt P49736 61-130; P84243 1-136; P62805 2-103); experiment: pull-down; GST-tagged protein (1.5 nmol) on Glutathione Sepharose 4B, 1.5 nmol histone complex added; 20 mM Tris pH 7.5, 500 mM NaCl, 4°C, 2 hours; washes with 0.5% Triton X-100; SDS-PAGE
T2 construct: histone H3.3, human; histone H4, human; also called pre-assembled MCM2 HBD-H3.3-H4 complexes; MCM2 HBD–H3.3–H4 complex; source: purified as described previously (Huang et al., 2015); copies: + +

[3] = target: T3, human histones H3.3–H4 tetramer (human, UniProt P84243 1-136; P62805 1-103); experiment: ITC; MicroCal PEAQ-ITC, 20°C, 20 mM Tris-HCl pH 7.5, 500 mM NaCl; 300 μM DNAJC9 HBD in the syringe, 30 μM (dimers) H3-H4 in the cell; one set of sites model; n = 3
T3 construct: histone H3.3, human; histone H4, human; methods call it a tetramer; construct as in Huang et al., 2015; also called pre-assembled H3.3-H4; H3.3 WT-H4; source: bacteria, co-expressed and purified (as in Huang et al., 2015; Superdex 200 in 2 M NaCl); copies: 2 + 2

histone H4 (recombinant) [4] = target: T1, histone H4 (recombinant); experiment: crystal structure; DNAJC9 HBD C243S mixed 1:1 with the MCM2 HBD (61–130)–H3.3 (57–135)–H4 complex, gel filtration in 1 M NaCl; PDB 7CJ0, 2.50 Å

Binder | binding result [2] | further results
B1 |  | binding result (histone H4 (recombinant) [1]): binds
B2 | binds | 
B3 | binds | 
B4 | binds | 
B5 | binds | 
B6 |  | Kd [3]: 55 nM
B7 | binds | 
B8 |  | binding result (histone H4 (recombinant) [4]): binds
